Like-named read-outs stand apart in the source and are kept apart here. A value given as a limit tells only on which side of the number the result lay.

The results in this text go back to patent US20110286916A1 (published 2011).

The target of assay [1] is T1, human Notch3-Gal4 chimeric receptor on U2OS FlpIn TREx cells (human, UniProt Q9UM47 40-2321). Kind of assay: cell-based or functional assay.
For assay [2], the target named is T2, human full-length Notch1 with C-terminal FLAG tag, stably expressed on 293 FlpIn (TREx) cells (human, UniProt P46531 19-2555).
T2 construct: tetracycline/doxycycline-induced expression from pcDNA5/FRT/TO-HN1+FLAG; also called hN1; 293_N1
Kind of assay: FACS, hN1 293 cells, MFI grade (++ 101-500). The protocol:
Notch 293 FlpIn (TREx) cells were treated with dox (2 ug/ml) for two days to induce Notch expression before collecting them for FACS surface expression analysis. The cells were harvested from tissue culture flasks using Trypsin for 15 min, centrifuged at 1200 rpm for 10 minutes and resuspended in 2 ml PBS with 2% fetal bovine serum (2% FBS/PBS). The cells were counted, adjusted to 10⁷ cells/ml and 0.1 ml of cells was incubated with 1 ug of each Mab for 40 minutes at 4° C. The cells were washed, resuspended in 0.1 ml 2% FBS/PBS and incubated with 1 ug R-PE-conjugated goat anti-human Ig (Jackson ImmunoResearch) for 30 minutes at 4° C. Cells were washed, resuspended in 0.3 ml PBS with 10% formaldehyde and analyzed on a FACSCalibur (Becton Dickinson, Mt View, Calif.).
(In general: A flow cytometer gives signals particle by particle.)

Assay [3] concerns the target T3, Notch1 extracellular fragment (amino acid 19-526) Fc fusion protein, R&D Systems 3647-TK (human, UniProt P46531 19-526).
T3 construct: bought protein; also called Notch1/Fc; Notch1-ECD Fc fusion protein; not shown: Fc of the bought fusion protein
Kind of assay: BIAcore SPR, Notch1/Fc on CM5, Mab analyte, 1:1 binding. The protocol:
All experiments were performed at 25° C. at a flow rate of 40 μl/min. […] FC1 was used as the reference cell. Specific signals were the results of differences of signals obtained on FC2 versus FC1. […] The dissociation phase of the analyte was monitored over a period of time ranging 10-30 minutes. Running buffer was also injected under the same conditions as a reference.
Equilibrium dissociation constant (KD) was calculated by the ratio between dissociation (koff) and association (kon) rate constants.
Background: In SPR one partner is held on a chip, and binding of the other changes the refractive index at the surface.

For assay [4], the target named is T2, human full-length Notch1 with …. The experiment in a line: FACS, phage scFv.
Assay [5] has as its target T4, human full-length Notch3 with C-terminal FLAG tag, stably expressed on 293 FlpIn (TREx) cells (human, UniProt Q9UM47 40-2321).
T4 construct: whole, on cells; made by the same strategy as the Notch1 line; also called 293-N3; hN3
The experiment in a line: FACS, phage scFv.

The target of assay [6] is T1, human Notch3-Gal4 chimeric receptor on …. The experiment in a line: cell-based or functional assay. The source holds these as a separate data set.

B1: WC-613 (antibody, human IgG1, lambda, V domains shown)
VH: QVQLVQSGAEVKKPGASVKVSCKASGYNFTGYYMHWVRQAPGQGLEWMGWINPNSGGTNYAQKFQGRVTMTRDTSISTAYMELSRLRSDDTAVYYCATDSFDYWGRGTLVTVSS
VL: SYELTQPPSASGTPGQRVTISCSGSYSNIGSNYVYWYQQLPGTAPKLLIYTNNQRPSGVPDRFSGSKSGTSASLVISGLRSDDEGDYYCAAWDDSVSVLLFGGGTKVTVLQ
notes: also called N1wc613; hN1wc-613
Consider B1, for which the “hN3, inhibition of Luc activity at [166 nM] Mab” value (“hN3, inhibition of Luc activity” below) in assay [1] was under 10%. Also, in assay [2], the MFI fell in the range of 101 to 500 mfi. Further, in assay [3], the Kd worked out at 1.09 nM, the koff turned out to be 0.000258 s⁻¹ and the kon amounted to 237000 M⁻¹ s⁻¹.

B2: HN1S3-133 (antibody, human IgG1, lambda, V domains shown)
VH: QVQLVQSGPEVKKPGTSVKVSCKASGFTFTSSAVQWVRQARGQRLEWIGWIVVGSGNTNYAQKFQERVTITRDMSTSTAYMELSSLRSEDTAVYYCVADTVYWGQGTLVTVSS
VL: QSVLTQPPSVSEAPRQRVTISCSGSSSNIGNNAVNWYQQLPGEAPKLLIYYDDLLPSGVSDRFSGSKSGSSASLAISGLQAEDEADYYCATWDDSLNAWVFGGGTKVTVLQ
With B2, in assay [3], the affinity, expressed as Kd, was 0.649 nM; the koff amounted to 0.0004 s⁻¹; the kon amounted to 616000 M⁻¹ s⁻¹.

B3: N1wc570 (scFv, V domains shown)
VH: QVQLVQSGPEVKKPGTSVKVSCKASGFTFTSSAVQWVRQARGQRLEWIGWIVVGSGNTNYAQKFQERVTITRDMSTSTAYMELSSLRSEDTAVYYCVADTVYWGRGTMVTVSS
VL: QSVLTQPPSASATPGQTVTISCSGSTSNIGNNNVNWYQQVPGTAPKLLMYSNNQRPSGVPDRFSGSRSGTSASLAITALQSEDEADYYCATWDDSLSAWVFGGGTKVTVL
notes: phage scFv
For B3, the binding result in assay [4] and in assay [5] was “binds” throughout.

B4: HN1S3-147 (antibody, human IgG1, lambda, V domains shown)
VH: QVQLVQSGPEVKKPGTSVKVSCKASGFTFTSSAVQWVRQARGQRLEWIGWIVVGSGNTNYAQKFQERVTITRDMSTSTAYMELSSLRSEDTAVYYCVADTVYWGKGTLVTVSS
VL: not shown
Take B4: in assay [3], the affinity, expressed as Kd, was 0.269 nM; the koff was determined as 0.000285 s⁻¹; the kon turned out to be 1.06e+06 M⁻¹ s⁻¹.

B5: A673-C2-110 (antibody, human IgG1, lambda, V domains shown)
VH: QVQLVQSGTEVKKPGASVRVSCKPSADTFTSYYVHWVRQAPGQGLEWMGTINPTGTYTRYAQQFQGRVTVTRDTSTSSVYMELSSLRSEDSAVYYCARDVRPYTAMYSFDNWGRGTTVTVSS
VL: SYVLTQPPSVSVSPGQTATITCSGDALPKQYANWYQQKPGQAPVLMIYKDSDRPSGIPERFSGSSSGTKATLTISGVQAEDEADYYCQSADNSGTNYVFGTGTKLTVLG
Turning to B5, the “hN3, inhibition of Luc activity” value in assay [6] is under 10%.

B6: WC-629 (antibody, human IgG1, lambda, V domains shown)
VH: EVQLVQSGAEVKKPGSSVKVSCKASGGTLSSYTVSWLRQAPGQGLEWMGRIIPILDRANYAQKFQGRVTITADKSTSTAYMELNSLRSDDTAVYYCARSIGAAGDGVWFDPWGQGTMVTVSS
VL: QAVLTQPSSVSGAPGQRVTISCTGSSSNIGAGYDVHWYQQLPGTAPKLLIFDNKNRPSGVPDRFSGSNSGTSASLAITGLQAEDEAEYYCQSYDNNLSGRVFGGGTKLTVLQ
As to B6, the “hN3, inhibition of Luc activity” value in assay [1] is under 10%.

B7: S3-009 (antibody, human IgG1, lambda, V domains shown)
VH: EVQLVQSGAEVKKPGASVKVSCKASGYNFTGYYMHWVRQAPGQGLEWMGWINPNSGGTNYAQKFQGRVTMTRDTSISTAYMELSRLRSDDTAVYYCATDSFDYWGQGTMVTVSS
VL: SYVLTQPPSVSEAPRQRVTISCSGSSSNIGNNAVSWYQQLPGKAPKTLIYYDDLLSSGVSDRFSGSRSGTSASLAISGLQSEDEADYYCAAWDDSLNGVVFGGGTKLTVLQ
notes: also called hN1S3-009; HN1S3-9
Consider B7, for which the “hN3, inhibition of Luc activity” value in assay [1] is under 20%. Also, in assay [2], the MFI lay within 101 to 500 mfi. Besides, in assay [3], the Kd turned out to be 5.23 nM, the koff was found to be 0.00268 s⁻¹ and the kon came to 513000 M⁻¹ s⁻¹.

B8: S3-011 (antibody, human IgG1, lambda, V domains shown)
VH: QVQLVQSGPEVKKPGASVKVSCKASGYNFTGYYMHWVRQAPGQGLEWMGWINPNSGGTNYAQKFQGRVTMTRDTSISTAYMELSRLRSDDTAVYYCATDSFDYWGRGTMVTVSS
VL: not shown
notes: also called hN1S3-011
As to B8, the “hN3, inhibition of Luc activity” value in assay [1] was under 10%. This molecule also came in with an MFI in assay [2] of 101 to 500 mfi.

B9: hN1wc-179 (antibody, human IgG1, lambda, V domains shown)
VH: EVQLVQSGAEVKKPGASVKVSCKASGYNFTGYYMHWVRQAPGQGLEWMGWINPNSGGTNYAQKFQGRVTMTRDTSISTAYMELSRLRSDDTAVYYCATDSFDYWGQGTMVTVSS
VL: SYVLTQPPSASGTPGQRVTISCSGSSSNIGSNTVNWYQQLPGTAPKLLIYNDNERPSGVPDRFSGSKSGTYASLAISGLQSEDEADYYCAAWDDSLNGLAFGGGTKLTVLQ
B9: in assay [3], the Kd was 7.36 nM, the koff was 0.00363 s⁻¹ and the kon is 493000 M⁻¹ s⁻¹.

B10: FL-SKNAS-C2-384 (antibody, human IgG1, lambda, V domains shown)
VH: EVQLVQSGAEVKKPGSSVKVSCKASGGTLSSSAISWVRQAPGEGLEWMGGIIPMFDSTNYAQKFQGRVTITADESTSTAFMELSSLRSDDTAVYYCGRDPYYDRLSGGGYMDVWGQGTLVTVSS
VL: SYVLTQPPSVSGALRQTATVTCTGNSSNVGNQGAAWLRQHQGRPPKLLSYRNNDRPSGVSQRFSASTSGNTASLTITGLQSEDEADYFCSAWDSSRSGWVFGGGTKLTVLG
Consider B10, for which the “hN3, inhibition of Luc activity” value in assay [6] was under 5%.

B11: N1wc586 (scFv, V domains shown)
VH: QVQLVQSGPEVKKPGASVKVSCKAAGYTFPDFYMHWVRQAPGKGPEWVGWINSNSGSTRLAERLEGRVTLTRDTSISTAYMELTSLTSDDTAVYYCARGAYDYVWGTSRYVADAFDIWGQGTLVTVSP
VL: DIVMTQSPSTLSASVGDRVTITCRASQGISSWLAWYQQKPGRAPKVLIYKASTLESGVPSRFSGSGSGTDFTLTISSLQPEDFATYYCQQSYSTPWTFGQGTKLEIK
notes: phage scFv
For the molecule B11, the binding result in assay [4] and in assay [5] was “binds” each time.

B12: WC-75 (antibody, human IgG1, lambda, V domains shown)
VH: GVQLVQSGGGLVQPGGSLRLSCAASGFTFDDYAMHWVRQAPGKGLEWVSSISWHSRTIAYADSVKGRFSISRDNAKNSLYLQMNSLRPEDTAVYYCAKASYLSTSSSLDYWGRGTLVTVSS
VL: QSVLTQPGSVSGSPGQSITISCTGTSSDVGGYNYVSWYQQHPGKAPKLMIYEGSKRPSGVSNRFSGSKSGNTASLTISGLQAEDEADYYCSSYTTRSTRVFGGGTKLTVLQ
Turning to B12, the “hN3, inhibition of Luc activity” value in assay [1] was under 10%.

B13: N1wc39 (scFv, V domains shown)
VH: EVQLVQSGAEVKKPGASVKLSCKTSGHTFTNYAFHWLRQAPGQRPEWLGWINADNGNTKYSQSFQDRVTITRDISANTAYMEMSRLKSEDTAYYYCARDPWSGVLDHWGKGTLVTVSS
VL: DIQLTQSPSSVSASIGDTVTITCRASQNINKWLAWYQQKPGKAPYLLISTASNLQSGVPSRFSGTGSGTAFTLTISRVQPEDFANYYCQQAFSFPITFGQGTRLEIK
notes: phage scFv
For B13, the binding result in assay [4] and in assay [5] was “binds” in each case.

B14: N1wc45 (scFv, V domains shown)
VH: EVQLVQSGAEVKKPGASVKVSCKASGYSFRSYGIVWVRQAPGQGLEWMGWISAYNGNTNYAQKLQGRVTMTTDTSTSTAYMELRSLRSDDTAVYYCVRGDRHYDILTGYSPVWFDPWGKGTTVTVSS
VL: SSELTQDPAVSVALGQTVRITCQGDSLRSYYASWYQQKPGQAPVLVIYGKNNRPSGIPDRFSGSSSGNTASLTITGAQAEDEADYYCNSRDSSGNHVVFGGGTKLTVL
notes: phage scFv
With B14, the binding result in assay [4] and in assay [5] was “binds” throughout.

B15: N1wc621 (scFv, V domains shown)
VH: EVQLVQSGAEVKKPGASVKVSCKASGYTFTGYYIHWVRQAPGQGLEWMGWISPNSGVTNYAQRFQGRVTMSRDTSITTAYMELNRLGSDDTAVYYCAREGREDGVLFDYWGRGTLVTVSS
VL: QAVLTQPSSVSGAPGQTVTISCAGSSSNLGAGYDAHWYQHLPGAVPRLLIYNNSKRPSGVPDRFSASKSGSSASLAITGLQPEDEADYYCQTYDTRLSGSMLFGGGTKVTVL
notes: phage scFv
In the case of B15, the binding result in assay [4] and in assay [5] was “binds” each time.

For orientation: Kd means the constant that tells how readily two partners part at equilibrium. A higher Kd goes with a looser complex. By koff is commonly meant the first-order rate constant of dissociation. High values mean fast dissociation, low ones slow dissociation. For orientation: kon means the second-order rate constant of association. A lower kon goes with slow association.
